# Measured values published in patent US20240026407A1, “MODIFICATION OF SAPONINS” (GLAXOSMITHKLINE BIOLOGICALS SA, priority 2020, published 2024).
# B1: 875 (protein, listed as Exophiala spinifera)
# chain: MGSYSGSQQGFESIISGLTVEEKATLLSGADFWTTSPVTRVGIPALKVSDGPNGARGGHFQGKTTSACFPASVSLAASFDREFAYKIGRALGQETKTKGAHVLLGPTVCHHRDPRGGRNFESFSEDPLLAGELASEWIAGLQSEGVGATVKHYAVNEQETRRFTIDARVDQRALREIYLKPFEIAVKRADPWAIMTSYNLVNGKHADEHKELITDILRGQWGFKGLVMSDWGGTNSVAPSLNAGHDLEMPGPPLKRTVDNIQRALQTGELTEDTLNQRVGNVLKLLQRAGKFENPEIAEEQAVDLPEHRSLIRQAAAESMVLLKNTNNILPLKSTNTKSIALLGLAREYLGHGGGSASVNSHHKVTAYEALQAAVGSSVQLNYAEGARIVRNLSPLSENVYNEEGVPGFTMKTFSKLNGDNPTVSTVPSSVYRTLEPSSIDQMTLLGTFKPKTSGLHYISLSTLGGTRVYINDELVFDYSNSQTTDIMAFLIGSPGEDKKRYLFTAGESYRIRIEAKATKDTISGFSLFTKEAIGFSLGFALESEHDADLLTAAIEAAKSSDVAVVFVGHTPIWESEGADRSGMDLPKDGSLDALVVAAAKVNPNTVVVNSTGSAISMPWIEDVAAVVQAWFPGQEAGHSIADVLLGKVTPSGKLPVTFPRAITDVPSYENFPGDIKNEVVHYKESIYTGYRHFDRRPEGVLFPFGFGLSYTTFDVVVTSVSRTKLRNHETLTVSADVTNTGTTEGAEVVQVYVGAGEGTSAIDRPAKELAGFAKVHLRPGEARKVAITFGRDSVAYWNESRDKWSVDKGAYTIYVGTSSVDIAGKLEVEVPEAFDFDP
# B2: 848 (protein)
# chain: MTLEEKVSMVAGADAWHSTGVERLGIPAIKVTDGPNGARGGDFGGGVGSACFPVGVCLGSTWNTALIERVGQALGQEVQSKQAHILLAPTVNIHRSPLNGRNFECYSEDPYLTARIAAAYITGVQKQGVGACIKHFVCNDSEFERHSISSEVGERALREIYLPPSETAVREAGVWAVMSAYNKLNGTYCSENPYTLLEILKGEWGFEGIVISDWGGTYSTVEAAANGLDLEMPGPARWMGEKLLQAMRDGQVSGPKKLGEAVDDKVRRLLWTIEKAGAQLGPEPPEQAIDRPEHRALIRQAAGEGIVLLKNDGVLPLDGARVKRIAVIGPNAAEAKIMGGGSAQVKAHYAVSPLDGIRARAGEAVDVQCALGCTNYREIPELKTEWLTPVGGGESGWTVAYYNNLDLAGDPVRAETTDRTRMMWFGQVAPGVDRECFSARLSGTLTVPQSGTYTLSLNSAGVSRIAIDGELVLDNWTDYRPSRGPFDRDRKVPTAEVELTAGQGYTFVVEYSKQQSPRFAMLRVGCLPAQPADLMERAVQAAAKADVALVFIGTSGEWESEGFDRPDMELPGRQVELLEAVAAANPNTVAVLNTGSPVSVRWLDKVAALVEAWFPGQECGNAIADVLFGDVNPSGRLSQTWPVRLQDNPAYINYPGENGRVLYGEGLFVGYRYYEKKQIEPRFPFGHGLSYTTFEYGALRLQSEYTLGEPIAVSVDVTNTGPVAGQEVVQLYVRDEESSLVRPEKELKAFAKLALEPGETQTVTLTLDERALSFYDDAKAGWVAEAGEFTVLVGASSRDIRCTARFTLTVPPDRS
# modifications: uncultured microorganism
# B3: 864 (protein, listed as Stagonospora sp.)
# chain: MPYKVNDESREGEGLNALLGALTLDEKISLLSAKNIWETPEVERVGIPSLKVTDGPNGARGGEFFDGTTAACFPACVSLAATFDRALSRQVGRALGQEAITKGAYVVLGPTVCCHRSPLGGRNFEAFSEDPVLSGALASEYVKGLQEERVAATVKHFLANEQDTRRFSVDQTISERALREIYLKPFEIVAKQADPWCFMSSYPKINGKHVDAQSKFLIDILRKEWGYEGMVMSDWGAASTVEGIKYGLDMEMPGPPRQREANLVRNAVKKGQISEGDIDARVLSTLNLLKKVGKFSDRKDTPKEQAIDRPEHRALIRKAGREGIVLLKNQNNILPIDIKKTQKVALLGPLAKYAAAHGGGSASLNCHYKITPYDAFTERLGKDVEITHSKGAHIFRVYPDLDAGCKNAHGNVGFLAEYFMEGDIEPSSVPFRIEEFPRGSFNTLMNTNVTGCKSVRFTTTYRPPVTGKHYLSFSGLGPSHLSINGVMVAEQKNSTKDAMSFFLGVQEEERVQFDFDAAKTYDLIMETHPSPTNNAELYLMEGQTSIHLGFIAQAEMEQDVLAEAVDLAKDADLAIVFVGNTTQWETEGQDLSSMTLPADGSQDNLIASVVAANPKTIVVNTTGVPVELPWLDDVPAFLQAWYAGQETGNAILDVLLGEMSPSGKLPISWPKKYEHTGCYGNFGLDSFDSRKVEYVEGVFVGYRWFDRQWGHDKEVRFPFGYGLSYTEFSITDTRISGSIANDKNARVTVAANVKNVGSMSGSEILQVYLEPPVEEGIDRPVKGLVGFVKVELQPKEEKTVEVVFARDAAAFWDEAANEWAVSMGLHHIVVATSAAPVDIKARLELHVENAFKFDP
# B4: 809 (protein, listed as Rhodococcus erythropolis)
# chain: MELTAATGRNDVTENYVDGLSLEEKASLTSGSDFWHSQSVAGIESILLTDGPHGVRKQPEGGDALGLGHSIPATCFPPAVGLGSSWNLDLIRQVGEALGDEAKAEQVSVLLGPGINIKRSPLCGRNFEYVSEDPFLSGRVAAALITGIQSRGVGTSLKHFAANNQEHDRMRVSADVDERTLREIYLAGFEYAVKTAAPTTVMCSYNKINGVYSSQNHWLLTEVLREQWGFDGLVVSDWGAVNDRVAALAAGLDLEMPPTGTDTQIVDAVRGGDLDESVLTTAAERLSTLVKRTAAARTEGHTYDVERHHELARTAAAESAVLLANDGELLPLTPGGQTVAVIGEFACSPRYQGAGSSQVVPTKLDNALDAILDLEGADRVTFAPGFTFDGTPDDHMVTEAVDAARRADVAVLFLGLPSATESEGFDRTDIELPADQIALLEAVHGANPNTVVVLANGGVVSIEPWKDHAAAILEGWLLGQAGGSAIADLLFGITNPSGRLTETIPLRLQDNPSYLHFPGSQQHVRYGEGLYVGYRYYDSALREVAYPFGFGLSYTTFDITDTSVDAGKNSAEVTVTVRNSGDRSGSTVVQVYVHDASASIDRPAQELKGFAKVHLDPDESATVTITLDTRAFAYWSVAAQDWAIEPGDYEIRVGFSSRDIATTDTITLAGNVGVGTLDAMSTIGEWLAHPVGSAVLGAAMAAAAGDGAQAVSPEMMALAGSMPLGKLATFGLGITEEQVAQLVAAAAQPGS
# B5: 862 (protein, listed as Bifidobacterium thermacidophilum)
# chain: MDATTGTNKAPAPAQARQGNGRGGNEGRNASEIRHRVDDLTLEQKASLTSGADAWHVQGIDECGIPGYMITDGPHGLRKARPAEEQKTGLGDAVPVTCFPPAAGLSSSWDPGLVREVGEAMGEECIQEKVAVILGPAVNIKRNPLGGRCFEYWSEDPFLAGHEAVGIVEGVQSKGVGTSLKHFAANNQETDRLRISATISPRALREIYLPAFEYIVKTAQPWTVMCSYNRINGVHSAQNRWLLTDVLRREWGFQGIVMSDWGADHDRVASLNAGLNLEMPPSGTDDQIVAAVRDGRIAPEQLDSMAQGMIDLVAKAQPAMSRDGYRYDRDRHYDIARRAARESMVLLKNEQGTLPVRPGVRVAVIGEFARTARYQGGGSSHITPDRMSSFLDATARRGEQVDFAPGFTLDLDPADPVLEAQAIETARHADIVLMFMGLPEAAESEGFDRTSLDIPAKQTSLLHKISAVNPHVAVILSNGSVVSVAPWCDDAQAILESWLLGEAGGDALADVVFGDVSPSGKLAQTIPLDINDDPTMLNWPGEEGHVDYGEGVFVGYRYYDTYRKPVAYPFGFGLSYATFDVHDARVRRLGVDDAARVAAERAAGDAAQGNDVARADGAAHVDGACGAVVRVDATVTNTSDAPGAQVVEIYVAPGKSQVARPVHELKGFARVDLAPGESKAVSITLDERAFAYWSQRFDDWHVEAGDYTVEVGTSSRDIVARIPAHLDGDGKTMPLDEWSTFGEWAADPVGARVVEAVGREADQGRLPRLPQNGVMRIFLMAAPVNSLQMILGEEGLEVARFMLDEYRRIRG
# Assays:
# Assay type in all cases: biochemical, Quillaja saponaria
# [1] = Experiment 5-3: screening of additional glucosidases for deglycosylation with QS-18 in treated bark extract (80%) at pH 6 and 35 deg C; details: TBE 80% (QS-21 approx. 4 g/L), pH 6, 35 deg C; UV HPLC
# Method: Experiment 5-1 was repeated, replacing CBE with Treated Bark Extract (TBE) at pH 6. TBE was prepared from CBE by PVPP treatment and concentration, to provide TBE with a QS-21 concentration of approximately 4 g/L. TBE was adjusted to pH 6 by dropwise addition of 2M NaOH with stirring.
# [2] = Experiment 5-1: screening of additional glucosidases for deglycosylation with purified QS-18 (0.04 mg/ml) at pH 7.5 and 30 deg C; details: pH 7.5, 30 degrees C, 18 hours, LCMS/MS
# Method: The 94 additional genes, together with positive control (DNA encoding SEQ ID No. 262) and negative control, were transformed, expressed, lysed and reacted in the same manner as described above for Experiment 4-1, except the reaction was incubated at 30 degrees C. for 18 hours.
# Samples were analysed by LCMS/MS according to the procedure in Experiment 4-1.
# [3] = Experiment 5-2: screening of additional glucosidases for deglycosylation with QS-18 in crude bark extract (80%) at pH 6 and 35 deg C; details: CBE 80%, pH 6, 35 deg C, 18 hours; UV HPLC
# Summary of the method: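 Deglycosylation of QS-18 was monitored by UV HPLC after MeCN/AcOH quench with hexanophenone. The reaction ran 18 hours at 35 deg C, shaking, combining clarified pH 6 lysate with crude bark extract neutralised to pH 6 by NaOH.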
Molecule,Experiment 5-3 % conv [1],Experiment 5-1 % conv [2],Experiment 5-2 % conv [3]
B1,<0.5%,4.7%,<0.5%
B2,<0.5%,3.8%,<0.5%
B3,<0.5%,3.9%,<0.5%
B4,<0.5%,6.3%,<0.5%
B5,<0.5%,4.2%,<0.5%
